Assay results: EP4792821A2 (Beijing Youcare Kechuang Pharmaceutical Technology Co., Ltd., dated 2026)
The star is where a group is joined. Succinyl(4-O-cholesteryl) = CC(C)CCC[C@@H](C)[C@H]1CC[C@H]2[C@@H]3CC=C4C[C@@H](OC(=O)CCC(=O)*)CC[C@]4(C)[C@H]3CC[C@]12C

B1: Compound 37 (peptide)
peptide: Ac-FDELVNKKIEKIEEVNKKSLKLLESEAAAKK(Succinyl(4-O-cholesteryl))-NH2
SMILES: CC[C@H](C)[C@H](NC(=O)[C@H](CCCCN)NC(=O)[C@H](CCCCN)NC(=O)[C@H](CC(N)=O)NC(=O)[C@@H](NC(=O)[C@H](CC(C)C)NC(=O)[C@H](CCC(=O)O)NC(=O)[C@H](CC(=O)O)NC(=O)[C@H](Cc1ccccc1)NC(C)=O)C(C)C)C(=O)N[C@@H](CCC(=O)O)C(=O)N[C@@H](CCCCN)C(=O)N[C@H](C(=O)N[C@@H](CCC(=O)O)C(=O)N[C@@H](CCC(=O)O)C(=O)N[C@H](C(=O)N[C@@H](CC(N)=O)C(=O)N[C@@H](CCCCN)C(=O)N[C@@H](CCCCN)C(=O)N[C@@H](CO)C(=O)N[C@@H](CC(C)C)C(=O)N[C@@H](CCCCN)C(=O)N[C@@H](CC(C)C)C(=O)N[C@@H](CC(C)C)C(=O)N[C@@H](CCC(=O)O)C(=O)N[C@@H](CO)C(=O)N[C@@H](CCC(=O)O)C(=O)N[C@@H](C)C(=O)N[C@@H](C)C(=O)N[C@@H](C)C(=O)N[C@@H](CCCCN)C(=O)N[C@@H](CCCCNC(=O)CCC(=O)O[C@H]1CC[C@@]2(C)C(=CC[C@H]3[C@@H]4CC[C@H]([C@H](C)CCCC(C)C)[C@@]4(C)CC[C@@H]32)C1)C(N)=O)C(C)C)[C@@H](C)CC
B2: Compound 34 (peptide)
peptide: Ac-FDEEVNKKIEQSLKINQSLEEIRKSEAAAKK(Succinyl(4-O-cholesteryl))-NH2
SMILES: CC[C@H](C)[C@H](NC(=O)[C@H](CCC(=O)O)NC(=O)[C@H](CCC(=O)O)NC(=O)[C@H](CC(C)C)NC(=O)[C@H](CO)NC(=O)[C@H](CCC(N)=O)NC(=O)[C@H](CC(N)=O)NC(=O)[C@@H](NC(=O)[C@H](CCCCN)NC(=O)[C@H](CC(C)C)NC(=O)[C@H](CO)NC(=O)[C@H](CCC(N)=O)NC(=O)[C@H](CCC(=O)O)NC(=O)[C@@H](NC(=O)[C@H](CCCCN)NC(=O)[C@H](CCCCN)NC(=O)[C@H](CC(N)=O)NC(=O)[C@@H](NC(=O)[C@H](CCC(=O)O)NC(=O)[C@H](CCC(=O)O)NC(=O)[C@H](CC(=O)O)NC(=O)[C@H](Cc1ccccc1)NC(C)=O)C(C)C)[C@@H](C)CC)[C@@H](C)CC)C(=O)N[C@@H](CCCNC(=N)N)C(=O)N[C@@H](CCCCN)C(=O)N[C@@H](CO)C(=O)N[C@@H](CCC(=O)O)C(=O)N[C@@H](C)C(=O)N[C@@H](C)C(=O)N[C@@H](C)C(=O)N[C@@H](CCCCN)C(=O)N[C@@H](CCCCNC(=O)CCC(=O)O[C@H]1CC[C@@]2(C)C(=CC[C@H]3[C@@H]4CC[C@H]([C@H](C)CCCC(C)C)[C@@]4(C)CC[C@@H]32)C1)C(N)=O
B3: Compound 47 (peptide)
peptide: Ac-SLEQVNKINKKIDKIEESLKKIEESDKKSLEVNKKLEAAAKK-NH2
B4: Compound 33 (peptide)
peptide: Ac-SLEQVNKKINQSLKVNKKSDKLLENEAAAKK(Succinyl(4-O-cholesteryl))-NH2
SMILES: CC[C@H](C)[C@H](NC(=O)[C@H](CCCCN)NC(=O)[C@H](CCCCN)NC(=O)[C@H](CC(N)=O)NC(=O)[C@@H](NC(=O)[C@H](CCC(N)=O)NC(=O)[C@H](CCC(=O)O)NC(=O)[C@H](CC(C)C)NC(=O)[C@H](CO)NC(C)=O)C(C)C)C(=O)N[C@@H](CC(N)=O)C(=O)N[C@@H](CCC(N)=O)C(=O)N[C@@H](CO)C(=O)N[C@@H](CC(C)C)C(=O)N[C@@H](CCCCN)C(=O)N[C@H](C(=O)N[C@@H](CC(N)=O)C(=O)N[C@@H](CCCCN)C(=O)N[C@@H](CCCCN)C(=O)N[C@@H](CO)C(=O)N[C@@H](CC(=O)O)C(=O)N[C@@H](CCCCN)C(=O)N[C@@H](CC(C)C)C(=O)N[C@@H](CC(C)C)C(=O)N[C@@H](CCC(=O)O)C(=O)N[C@@H](CC(N)=O)C(=O)N[C@@H](CCC(=O)O)C(=O)N[C@@H](C)C(=O)N[C@@H](C)C(=O)N[C@@H](C)C(=O)N[C@@H](CCCCN)C(=O)N[C@@H](CCCCNC(=O)CCC(=O)O[C@H]1CC[C@@]2(C)C(=CC[C@H]3[C@@H]4CC[C@H]([C@H](C)CCCC(C)C)[C@@]4(C)CC[C@@H]32)C1)C(N)=O)C(C)C
B5: Compound 4 (peptide)
peptide: Ac-FDASLLKIEEEKKKIEELLKLHNESDKKLEEV-NH2
B6: Compound 36 (peptide)
peptide: Ac-VNKKIEEEKQSLKKQSDKIEESDENEAAAKK(Succinyl(4-O-cholesteryl))-NH2
SMILES: CC[C@H](C)[C@H](NC(=O)[C@H](CCCCN)NC(=O)[C@H](CC(=O)O)NC(=O)[C@H](CO)NC(=O)[C@H](CCC(N)=O)NC(=O)[C@H](CCCCN)NC(=O)[C@H](CCCCN)NC(=O)[C@H](CC(C)C)NC(=O)[C@H](CO)NC(=O)[C@H](CCC(N)=O)NC(=O)[C@H](CCCCN)NC(=O)[C@H](CCC(=O)O)NC(=O)[C@H](CCC(=O)O)NC(=O)[C@H](CCC(=O)O)NC(=O)[C@@H](NC(=O)[C@H](CCCCN)NC(=O)[C@H](CCCCN)NC(=O)[C@H](CC(N)=O)NC(=O)[C@@H](NC(C)=O)C(C)C)[C@@H](C)CC)C(=O)N[C@@H](CCC(=O)O)C(=O)N[C@@H](CCC(=O)O)C(=O)N[C@@H](CO)C(=O)N[C@@H](CC(=O)O)C(=O)N[C@@H](CCC(=O)O)C(=O)N[C@@H](CC(N)=O)C(=O)N[C@@H](CCC(=O)O)C(=O)N[C@@H](C)C(=O)N[C@@H](C)C(=O)N[C@@H](C)C(=O)N[C@@H](CCCCN)C(=O)N[C@@H](CCCCNC(=O)CCC(=O)O[C@H]1CC[C@@]2(C)C(=CC[C@H]3[C@@H]4CC[C@H]([C@H](C)CCCC(C)C)[C@@]4(C)CC[C@@H]32)C1)C(N)=O
B7: Compound 39 (peptide)
peptide: Ac-WDEFDASISQNEKINQSLEEIRKSDELLHNNALEAAAKK(Succinyl(4-O-cholesteryl))-NH2
SMILES: CC[C@H](C)[C@H](NC(=O)[C@H](CO)NC(=O)[C@H](C)NC(=O)[C@H](CC(=O)O)NC(=O)[C@H](Cc1ccccc1)NC(=O)[C@H](CCC(=O)O)NC(=O)[C@H](CC(=O)O)NC(=O)[C@H](Cc1c[nH]c2ccccc12)NC(C)=O)C(=O)N[C@@H](CO)C(=O)N[C@@H](CCC(N)=O)C(=O)N[C@@H](CC(N)=O)C(=O)N[C@@H](CCC(=O)O)C(=O)N[C@@H](CCCCN)C(=O)N[C@H](C(=O)N[C@@H](CC(N)=O)C(=O)N[C@@H](CCC(N)=O)C(=O)N[C@@H](CO)C(=O)N[C@@H](CC(C)C)C(=O)N[C@@H](CCC(=O)O)C(=O)N[C@@H](CCC(=O)O)C(=O)N[C@H](C(=O)N[C@@H](CCCNC(=N)N)C(=O)N[C@@H](CCCCN)C(=O)N[C@@H](CO)C(=O)N[C@@H](CC(=O)O)C(=O)N[C@@H](CCC(=O)O)C(=O)N[C@@H](CC(C)C)C(=O)N[C@@H](CC(C)C)C(=O)N[C@@H](Cc1c[nH]cn1)C(=O)N[C@@H](CC(N)=O)C(=O)N[C@@H](CC(N)=O)C(=O)N[C@@H](C)C(=O)N[C@@H](CC(C)C)C(=O)N[C@@H](CCC(=O)O)C(=O)N[C@@H](C)C(=O)N[C@@H](C)C(=O)N[C@@H](C)C(=O)N[C@@H](CCCCN)C(=O)N[C@@H](CCCCNC(=O)CCC(=O)O[C@H]1CC[C@@]2(C)C(=CC[C@H]3[C@@H]4CC[C@H]([C@H](C)CCCC(C)C)[C@@]4(C)CC[C@@H]32)C1)C(N)=O)[C@@H](C)CC)[C@@H](C)CC
B8: Compound 32 (peptide)
peptide: Ac-ILELVNKKIEQSLKFIEKSDKLLENEAAAKK(Succinyl(4-O-cholesteryl))-NH2
SMILES: CC[C@H](C)[C@H](NC(C)=O)C(=O)N[C@@H](CC(C)C)C(=O)N[C@@H](CCC(=O)O)C(=O)N[C@@H](CC(C)C)C(=O)N[C@H](C(=O)N[C@@H](CC(N)=O)C(=O)N[C@@H](CCCCN)C(=O)N[C@@H](CCCCN)C(=O)N[C@H](C(=O)N[C@@H](CCC(=O)O)C(=O)N[C@@H](CCC(N)=O)C(=O)N[C@@H](CO)C(=O)N[C@@H](CC(C)C)C(=O)N[C@@H](CCCCN)C(=O)N[C@@H](Cc1ccccc1)C(=O)N[C@H](C(=O)N[C@@H](CCC(=O)O)C(=O)N[C@@H](CCCCN)C(=O)N[C@@H](CO)C(=O)N[C@@H](CC(=O)O)C(=O)N[C@@H](CCCCN)C(=O)N[C@@H](CC(C)C)C(=O)N[C@@H](CC(C)C)C(=O)N[C@@H](CCC(=O)O)C(=O)N[C@@H](CC(N)=O)C(=O)N[C@@H](CCC(=O)O)C(=O)N[C@@H](C)C(=O)N[C@@H](C)C(=O)N[C@@H](C)C(=O)N[C@@H](CCCCN)C(=O)N[C@@H](CCCCNC(=O)CCC(=O)O[C@H]1CC[C@@]2(C)C(=CC[C@H]3[C@@H]4CC[C@H]([C@H](C)CCCC(C)C)[C@@]4(C)CC[C@@H]32)C1)C(N)=O)[C@@H](C)CC)[C@@H](C)CC)C(C)C
B9: Compound 35 (peptide)
peptide: Ac-SISQVNEKINEIQSLEEKSDKLLKSEAAAKK(Succinyl(4-O-cholesteryl))-NH2
SMILES: CC[C@H](C)[C@H](NC(=O)[C@H](CO)NC(C)=O)C(=O)N[C@@H](CO)C(=O)N[C@@H](CCC(N)=O)C(=O)N[C@H](C(=O)N[C@@H](CC(N)=O)C(=O)N[C@@H](CCC(=O)O)C(=O)N[C@@H](CCCCN)C(=O)N[C@H](C(=O)N[C@@H](CC(N)=O)C(=O)N[C@@H](CCC(=O)O)C(=O)N[C@H](C(=O)N[C@@H](CCC(N)=O)C(=O)N[C@@H](CO)C(=O)N[C@@H](CC(C)C)C(=O)N[C@@H](CCC(=O)O)C(=O)N[C@@H](CCC(=O)O)C(=O)N[C@@H](CCCCN)C(=O)N[C@@H](CO)C(=O)N[C@@H](CC(=O)O)C(=O)N[C@@H](CCCCN)C(=O)N[C@@H](CC(C)C)C(=O)N[C@@H](CC(C)C)C(=O)N[C@@H](CCCCN)C(=O)N[C@@H](CO)C(=O)N[C@@H](CCC(=O)O)C(=O)N[C@@H](C)C(=O)N[C@@H](C)C(=O)N[C@@H](C)C(=O)N[C@@H](CCCCN)C(=O)N[C@@H](CCCCNC(=O)CCC(=O)O[C@H]1CC[C@@]2(C)C(=CC[C@H]3[C@@H]4CC[C@H]([C@H](C)CCCC(C)C)[C@@]4(C)CC[C@@H]32)C1)C(N)=O)[C@@H](C)CC)[C@@H](C)CC)C(C)C
B10: Compound 46 (peptide)
peptide: Ac-FEVNRRRIEQSLEKSLESLEEEEHSDKKLHNELH-NH2

What follows are binders tested against F protein of RSV A long virus strain (Respiratory Syncytial Virus (RSV) A …, UniProt P12568 26-574) (assay: cell-based or functional assay).
Chain of F protein of RSV A long virus strain (P12568 26-574): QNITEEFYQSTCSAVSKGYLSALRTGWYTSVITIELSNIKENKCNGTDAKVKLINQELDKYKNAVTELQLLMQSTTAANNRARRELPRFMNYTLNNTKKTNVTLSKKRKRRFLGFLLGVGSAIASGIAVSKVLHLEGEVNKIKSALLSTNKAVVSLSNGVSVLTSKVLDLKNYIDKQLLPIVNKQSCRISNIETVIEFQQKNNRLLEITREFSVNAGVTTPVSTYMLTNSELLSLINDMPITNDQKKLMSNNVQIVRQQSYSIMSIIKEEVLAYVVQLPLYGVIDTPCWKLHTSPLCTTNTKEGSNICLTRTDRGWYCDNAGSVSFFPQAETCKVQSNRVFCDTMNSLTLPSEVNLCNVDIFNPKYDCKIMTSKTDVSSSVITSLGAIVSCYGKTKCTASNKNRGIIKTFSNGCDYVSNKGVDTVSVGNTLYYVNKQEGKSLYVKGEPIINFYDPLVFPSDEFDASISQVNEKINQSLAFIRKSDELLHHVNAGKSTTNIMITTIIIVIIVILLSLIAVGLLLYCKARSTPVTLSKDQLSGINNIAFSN
With B1 the “IC50/nM, plaque reduction, RSV A long on HEp-2 cells (Table 2, Cell fusion inhibition activity)” value was 5230 nM.
For B2, the “IC50/nM, plaque reduction, RSV A long on HEp-2 cells (Table 2, Cell fusion inhibition activity)” value was > 2000 nM.
For B3, the “IC50/nM, plaque reduction, RSV A long on HEp-2 cells (Table 2, Cell fusion inhibition activity)” value was > 8000 nM.
In the case of B4, the “IC50/nM, plaque reduction, RSV A long on HEp-2 cells (Table 2, Cell fusion inhibition activity)” value is reported as 5040 nM.
B5 was tested, and the “IC50/nM, plaque reduction, RSV A long on HEp-2 cells (Table 2, Cell fusion inhibition activity)” value was > 8000 nM.
In the case of B6, the “IC50/nM, plaque reduction, RSV A long on HEp-2 cells (Table 2, Cell fusion inhibition activity)” value is reported as 6820 nM.
B7 was tested, and the “IC50/nM, plaque reduction, RSV A long on HEp-2 cells (Table 2, Cell fusion inhibition activity)” value was 113 nM.
B8 was tested, and the “IC50/nM, plaque reduction, RSV A long on HEp-2 cells (Table 2, Cell fusion inhibition activity)” value was 296 nM.
In the case of B9, the “IC50/nM, plaque reduction, RSV A long on HEp-2 cells (Table 2, Cell fusion inhibition activity)” value is reported as 5530 nM.
In the case of B10, the “IC50/nM, plaque reduction, RSV A long on HEp-2 cells (Table 2, Cell fusion inhibition activity)” value is reported as > 8000 nM.
